{
  "source": "patent US20050208039A1",
  "target": "158P1D7 receptor on HUVEC cells (unidentified)",
  "assay": "flow cytometry on HUVEC cells; bound ECD detected with anti-158P1D7-PE (MAb M15/X68.2.22 at 1 ug/ml and anti-mouse-PE); by the order of the key, 2.88% is taken as the sample 'HUVEC No ECD' and 6.53% as 'HUVEC 158P1D7 ECD' [panel printed as Fig. 34A]",
  "data": [
    {"substance": "Recombinant extracellular domain (ECD) of 158P1D7 (amino acids 16-608) (from UniProt Q9H5Y7 16-608)", "values": [
      {"measurement": "% gated", "result": 6.53, "unit": "%"}
    ]}
  ]
}
